Tests used:
[1] = system: T-cells (IFN-secreting splenocytes); assay: Immunogenicity and cross-reactivity, IFN ELISpot on splenocytes of immunized HHD DR3 mice; assay type: in vivo; conditions: for immunogenicity: immune response after challenge with the vaccination peptide or the human corresponding peptide (IFN ELISpot): 100 μg peptide + 150 μg helper peptide (DR3) + IFA s.c. days 0 and 14, splenocytes day 21; for immune response against the corresponding human peptide (cross-reactivity): same immunisation
Experimental: Concanavalin A (ConA) was used as a positive control.
The antigenic peptide of the invention BIRC5-B1 (SEQ ID NO: 32) and the corresponding human peptide BIRC5-H (SEQ ID NO: 593) were tested in distinct groups of male and female HHD DR3 mice expressing human HLA-A2 and HLA-DR3 MHC and lacking the murine H-2 class I and class II MHCs. Groups of 5 mice (male and female) were subcutaneously injected on days 0 and 14 with 100 μg of BIRC5-B1 or BIRC5-H, 150 μg of helper peptide (DR3) and IFA. On day 21, the mice were euthanized and splenocytes were prepared and stimulated in vitro with BIRC5-B1 or the human peptide BIRC5-H to assess their capacity to secrete IFN—as assessed by ELISpot. ConA was used as a positive control.
The antigenic peptide of the invention FOXM1-B2 (SEQ ID NO: 220) and the corresponding human peptide FOXM1-H2 (SEQ ID NO: 674) were tested in distinct groups of male and female HHD DR3 mice expressing human HLA-A2 and HLA-DR3 MHC and lacking the murine H-2 class I and class II MHCs. Groups of 5 mice (male and female) were subcutaneously injected on days 0 and 14 with 100 μg of FOXM1-B2 or FOXM1-H2, 150 μg of helper peptide (DR3) and IFA. On day 21, the mice were euthanized and splenocytes were prepared and stimulated in vitro with FOXM1-B2 or the human corresponding peptide FOXM1-H2 to assess their capacity to secrete IFN—as assessed by ELISpot. ConA was used as a positive control

HLA-A*0201 = target: T1, HLA-A*0201 (Homo sapiens, UniProt P04439, D140Y/D185E/D98H/E176V/E277Q/G131W/G231S/I119V/I121R/I166T/I218V/L300P/L318F/N151K/N90K/P208A/P217A/Q86G/Q94H/R138H/R169H/T345S); assay: Affinity of the peptide to T2 cell line: HLA-A2 labelling by FACS, relative to HIV pol 589-597; assay type: binding; conditions: for binding affinity to HLA-A*0201 compared with the other peptides tested (in words): Examples 2, 7, 8, 9; for binding to HLA-A*0201 as % of maximum HIV pol 589-597 binding activity: Example 8
T1 construct: the human tumoral cell T2 which expresses the HLA-A*0201 molecule; endogenous in cells; host or cells: T2 cells (human, TAP1/2 negative)
Excerpt: The experimental protocol is similar to the one that was validated for peptides presented by the HLA-A*0201 (Tourdot et al., A general strategy to enhance immunogenicity of low-affinity HLA-A2.1-associated peptides: implication in the identification of cryptic tumor epitopes. Eur J Immunol. 2000 December; 30(12):3411-21). Affinity measurement of the peptides is achieved with the human tumoral cell T2 which expresses the HLA-A*0201 molecule, but which is TAP1/2 negative and incapable of presenting endogenous peptides.
T2 cells (2.10^5 cells per well) are incubated with decreasing concentrations of peptides from 100 μM to 1.5625 μM in a AIMV medium supplemented with 100 ng/μl of human β2m at 37° C. for 16 hours. Cells are then washed two times and marked with the anti-HLA-A2 antibody coupled to PE (clone BB7.2, BD Pharmagen).
The analysis is achieved by FACS (Guava Easy Cyte).
A2. Solubilisation of Peptides
Each peptide is solubilized by taking into account the amino acid composition. […] Other peptides are resuspended in water or PBS pH7.4.
The experimental protocol, materials and methods correspond to those outlined in Example 2, with the only difference that the above mentioned (poly)peptides were used.

[2] = system: T cell responses (IFNγ-producing splenocytes); assay: ELISPOT-IFNγ assay on splenocytes of vaccinated HLA-A2 humanized mice; assay type: in vivo, HLA-A2 (CB6F1-Tg(HLA-A*0201/H2-Kb)A*0201) mice; conditions: 100 μg vacc-pAg + 150 μg T13L + IFA s.c. d0 and d14; splenocytes d21 restimulated with vacc-pAg 10 μM
Excerpt: Briefly, HLA-A2 humanized mice (HLA-A2 (CB6F1-Tg(HLA-A*0201/H2-Kb)A*0201) were assigned randomly (based on mouse sex and age) to experimental groups, wherein each group was immunized with a specific vaccination peptide (vacc-pAg) combined to a common helper peptide (h-pAg T13L; sequence: […]; SEQ ID NO: 860; Bhasin M, Singh H, Raghava GP (2003) MHCBN: a comprehensive database of MHC binding and non-binding peptides. Bioinformatics 19: 665-666) (as outlined in Table 5 below). The vacc-pAg were compared in couples (group 1 vs. group 2, group 1 vs. group 3; group 1 vs. group 4; group 5 vs. group 6; group 7 vs. group 8; group 9 vs. group 10). Thereby, both native and optimized versions of a single peptide were compared in each wave.
The peptides were provided as follows: • vacc-pAg: BIRC5-H, BIRC5-B1, BIRC5-B2, BIRC5-B3, FOXM1-H2, FOXM1-B2, EZH2-H2, EZH2-B2, 1L13RA2-H and IL13RA2-B; all produced and provided at a 4 mg/ml (4 mM) concentration; • h-pAg: T13L; Eurogentec batch 1713334 re-suspended in pure distilled water at a 10 mg/mL concentration
The animals were immunized on day 0 (d0) with a prime injection, and on d14 with a boost injection. Each mouse was injected s.c. at tail base with 100 μL of an oil-based emulsion that contained: • 100 μg of vacc-pAg (25 μL of 4 mg/mL stock per mouse); • 150 μg of h-pAg (15 μL of 10 mg/mL stock per mouse); • 10 μL of PBS to reach a total volume of 50 μL (per mouse); • Incomplete Freund's Adjuvant (IFA) added at 1:1 (v:v) ratio (50 μL per mouse).
A separate emulsion was prepared for each vacc-pAg, as follows: IFA reagent was added to the vacc-pAg/h-pAg/PBS mixture in a 15 mL tube and mixed on vortex for repeated cycles of 1 min until forming a thick emulsion.
Seven days after the boost injection (i.e. on d21), the animals were euthanized and the spleen was harvested. Splenocytes were prepared by mechanical disruption of the organ followed by 70 μm-filtering and Ficoll density gradient purification.
The splenocytes were immediately used in an ELISPOT-IFNγ assay (Table 6). Experimental conditions were repeated in triplicates, using 2*10^5 total splenocytes per well, and were cultured in presence of vacc-pAg (10 μM), lonomycin (0.1 μM) plus PMA (1 μM) or medium-only to assess for their capacity to secrete IFNγ. The commercial ELISPOT-IFNγ kit (Diaclone Kit Mujrine IFNγ ELISpot) was used following the manufacturer's instructions, and the assay was performed after about 19 h of incubation.
Spots were counted on a CTL ELISpot reader. Data plotting and statistical analysis were performed with the Prism-5 software (GraphPad Software Inc.).
The data were then normalized as a number of specific spots (the average counts obtained in the ‘medium only’ condition being subtracted) per 50*10^3 total T cells.
The individual average values (obtained from the triplicates) were next used to plot the group average values. As the functional capacity of T cells might vary from individual to individual, the data were also expressed as the percentage of the ionomycin plus PMA response per individual (see FIG. 8).

[3] = system: T-cells (IFN-secreting splenocytes); assay: Immunogenicity and cross-reactivity, confirmation in HHD DR1 mice; assay type: in vivo; conditions: HHD DR3 and HHD DR1 mice, summary of Examples 4 to 6

LMDLSTTPL (listed as Homo sapiens) [FOXM1-H2, reference compound]
immunogenicity: immune response after challenge with the vaccination peptide or the human corresponding peptide (IFN ELISpot) [1]: does not induce immune response
Concentration of peptide that induces 20% of HLA-A2 expression (HLA-A*0201; Example 2, Table 4): 12.6 µM

FLVEDETVI [EZH2-B]
Concentration of peptide that induces 20% of HLA-A2 expression (HLA-A*0201; Example 2, Table 4): 8.8 µM

1A9V: comparative peptide (Eguchi et al., 2006): SEQ ID NO: 691 with tryptophan 1 substituted by alanine, isoleucine 9 by valine (ALPFGFILV; comparative peptide) [reference compound]
Concentration of peptide that induces 20% of HLA-A2 expression (HLA-A*0201; Example 8, Table 8): 36.5 µM
binding affinity to HLA-A*0201 compared with the other peptides tested (in words) (HLA-A*0201): lowest affinity of the peptides tested

RLSSYLVEI [FOXM1-B]
Concentration of peptide that induces 20% of HLA-A2 expression (HLA-A*0201; Example 2, Table 4): 46.7 µM

FLDSLGFSL [TYMS B2]
Concentration of peptide that induces 20% of HLA-A2 expression (HLA-A*0201; Example 2, Table 4): 2.7 µM

ILDEAYVRV [EGFR-B]
Concentration of peptide that induces 20% of HLA-A2 expression (HLA-A*0201; Example 2, Table 4): 3.1 µM

VLEELLWFI (listed as Homo sapiens) [TYMS H, reference compound]
Concentration of peptide that induces 20% of HLA-A2 expression (HLA-A*0201; Example 2, Table 4): 4.1 µM

RVSSYLVPI (listed as Homo sapiens) [FOXM1-H, reference compound]
Concentration of peptide that induces 20% of HLA-A2 expression (HLA-A*0201; Example 2, Table 4): 37.6 µM

SMFRVLIGT (listed as Homo sapiens) [EZH2-H2, reference compound]
Concentration of peptide that induces 20% of HLA-A2 expression (HLA-A*0201; Example 2, Table 4): 39.2 µM

GLLGEFLQI [BIRC5-B3]
T cell responses in the ELISPOT-IFNγ assay compared to the respective human reference epitope [2]: improved T cell responses
Concentration of peptide that induces 20% of HLA-A2 expression (HLA-A*0201; Example 2, Table 4): 22.9 µM

FMLGEFLKL [BIRC5-B1]
immunogenicity: immune response after challenge with the vaccination peptide or the human corresponding peptide (IFN ELISpot) [1]: strongly immunogenic
immune response against the corresponding human peptide (cross-reactivity) [1]: able to drive an effective immune response against human corresponding peptide
T cell responses in the ELISPOT-IFNγ assay compared to the respective human reference epitope [2]: improved T cell responses
Concentration of peptide that induces 20% of HLA-A2 expression (HLA-A*0201; Example 2, Table 4): 2.7 µM
Concentration of peptide that induces 20% of HLA-A2 expression (HLA-A*0201; Example 9, Table 9): 1.24 µM
binding affinity to HLA-A*0201 compared with the other peptides tested (in words) (HLA-A*0201): considerably higher in vitro binding affinity
immune responses induced [3]: induced strong immune responses

AVFRVLIPV [EZH2-B2]
T cell responses in the ELISPOT-IFNγ assay compared to the respective human reference epitope [2]: improved T cell responses
Concentration of peptide that induces 20% of HLA-A2 expression (HLA-A*0201; Example 2, Table 4): 8.3 µM

LMDLSTTEV [FOXM1-B2]
immunogenicity: immune response after challenge with the vaccination peptide or the human corresponding peptide (IFN ELISpot) [1]: strongly immunogenic
immune response against the corresponding human peptide (cross-reactivity) [1]: able to drive an effective immune response against human corresponding peptide
T cell responses in the ELISPOT-IFNγ assay compared to the respective human reference epitope [2]: improved T cell responses
Concentration of peptide that induces 20% of HLA-A2 expression (HLA-A*0201; Example 2, Table 4): 6.7 µM
immune responses induced [3]: induced strong immune responses

LLLSAALSV [CHI3L1 B]
Concentration of peptide that induces 20% of HLA-A2 expression (HLA-A*0201; Example 2, Table 4): 3.6 µM

FMVEDETVL (listed as Homo sapiens) [EZH2-H, reference compound]
Concentration of peptide that induces 20% of HLA-A2 expression (HLA-A*0201; Example 2, Table 4): 13.3 µM

LMLGEFLKL [2M, reference compound]
Concentration of peptide that induces 20% of HLA-A2 expression (HLA-A*0201; Example 9, Table 9): 2.87 µM

YTLGEFLYI [BIRC5-B2]
T cell responses in the ELISPOT-IFNγ assay compared to the respective human reference epitope [2]: improved T cell responses
Concentration of peptide that induces 20% of HLA-A2 expression (HLA-A*0201; Example 2, Table 4): 14.7 µM

YLLSAALTI [CHI3L1 B3]
Concentration of peptide that induces 20% of HLA-A2 expression (HLA-A*0201; Example 2, Table 4): 8.6 µM

LTLGEFLKL (listed as Homo sapiens) [BIRC5-H, reference compound]
immunogenicity: immune response after challenge with the vaccination peptide or the human corresponding peptide (IFN ELISpot) [1]: does not induce any immune response
Concentration of peptide that induces 20% of HLA-A2 expression (HLA-A*0201; Example 2, Table 4): 53.0 µM
Concentration of peptide that induces 20% of HLA-A2 expression (HLA-A*0201; Example 9, Table 9): 95.9 µM

FLPFGFILPV [IL13RA2-L]
immunogenicity: immune response after challenge with the vaccination peptide or the human corresponding peptide (IFN ELISpot) [1]: strongly immunogenic
immune response against the corresponding human peptide (cross-reactivity) [1]: able to drive an effective immune response against the corresponding human peptide
Concentration of peptide that induces 20% of HLA-A2 expression (HLA-A*0201; Example 2, Table 4): 3.2 µM
Concentration of peptide that induces 20% of HLA-A2 expression (HLA-A*0201; Example 8, Table 8): 3.2 µM
binding affinity to HLA-A*0201 compared with the other peptides tested (in words) (HLA-A*0201): considerably higher binding affinity
binding to HLA-A*0201 as % of maximum HIV pol 589-597 binding activity (HLA-A*0201; at 6.25 μM): 43%
binding to HLA-A*0201 as % of maximum HIV pol 589-597 binding activity (HLA-A*0201; at 25 μM): 96%
binding to HLA-A*0201 as % of maximum HIV pol 589-597 binding activity (HLA-A*0201; at 100 μM): 69%
immune responses induced [3]: induced strong immune responses

FLDSLGFST (listed as Homo sapiens) [TYMS H2, reference compound]
Concentration of peptide that induces 20% of HLA-A2 expression (HLA-A*0201; Example 2, Table 4): 9.5 µM

SMEELLWFV [TYMS B]
Concentration of peptide that induces 20% of HLA-A2 expression (HLA-A*0201; Example 2, Table 4): 1.1 µM

FLPFGFILV [IL13RA2-B]
T cell responses in the ELISPOT-IFNγ assay compared to the respective human reference epitope [2]: improved T cell responses
Concentration of peptide that induces 20% of HLA-A2 expression (HLA-A*0201; Example 2, Table 4): 2.9 µM
Concentration of peptide that induces 20% of HLA-A2 expression (HLA-A*0201; Example 8, Table 8): 2.9 µM
binding affinity to HLA-A*0201 compared with the other peptides tested (in words) (HLA-A*0201): considerably higher binding affinity

WLPFGFILI (listed as Homo sapiens) [IL13RA2-H, reference compound]
immunogenicity: immune response after challenge with the vaccination peptide or the human corresponding peptide (IFN ELISpot) [1]: does not induce an immune response
